# Data from patent US20150283227A1, “SYNTHETIC ENV PROTEINS” (priority 2012, published 2015).
# Values joined by “and” are separate entries in the source; they are usually repeats but may differ in a detail not shown here. Identical values can stand only once. Like-named read-outs stand apart in the source and are kept apart here. Where a SMILES comes first, the peptide text is derived from it. [ ]: non-standard residue; d: D form. The star is where a group is joined. ξ: configuration not given here. X1 = CC(=O)NC1C(O)[C@H](O)C(CO)O[C@H]1O[C@@H]1C(CO)O[C@@H](N*)C(NC(C)=O)C1O; Orn(CH(NH2)2) = NC(N)NCCC[C@H](N)C(=O)O; Ile(3ξ) = CCC(C)[C@H](N)C(=O)O; Thr(3ξ) = CC(O)[C@H](N)C(=O)O
# How the values were obtained:
# PG9 = settings: NMR studies, Man5GlcNAc2-Asn alone; read-out: Kd for binding of PG9; cited from earlier work
# [1] = target: Man5GlcNAc2 V1V2 glycopeptide, DMSO-oxidized disulfide-linked dimer (HIV-1 strain AE.CM244 (A244)); assay: SPR kinetics, DMSO-oxidized dimer; reference CH01
# [2] = target: Man5GlcNAc2 V1V2 glycopeptide, DMSO-oxidized disulfide-linked dimer (HIV-1 strain AE.CM244 (A244)); assay: SPR kinetics, DMSO-oxidized dimer; reference CH58 UCA
# [3] = target: Man3GlcNAc2 V1V2 glycopeptide, DMSO-oxidized disulfide-linked dimer (HIV-1 strain AE.CM244 (A244)); assay: SPR kinetics, mAb captured on anti-IgG, DMSO-oxidized dimer injected; 1:1 Langmuir
# [4] = target: Man5GlcNAc2 V1V2 glycopeptide, DMSO-oxidized disulfide-linked dimer (HIV-1 strain AE.CM244 (A244)); assay: as above
# [5] = target: Man3GlcNAc2 V1V2 glycopeptide, DMSO-oxidized disulfide-linked dimer (HIV-1 strain AE.CM244 (A244)); assay: SPR kinetics, mAb captured on anti-IgG, DMSO-oxidized dimer injected; faster component of the dissociation phase
# [6] = target: Man5GlcNAc2 V1V2 glycopeptide, DMSO-oxidized disulfide-linked dimer (HIV-1 strain AE.CM244 (A244)); assay: as above
# [7] = target: Man3GlcNAc2 V1V2 glycopeptide, DMSO-oxidized disulfide-linked dimer (HIV-1 strain AE.CM244 (A244)); assay: SPR, DMSO-oxidized dimer 1-10 µg/mL over CH58 UCA captured on anti-IgG
# [8] = target: Man5GlcNAc2 V1V2 glycopeptide, DMSO-oxidized disulfide-linked dimer (HIV-1 strain AE.CM244 (A244)); assay: as above
# [9] = target: Man5GlcNAc2 V1V2 glycopeptide, DMSO-oxidized disulfide-linked dimer (HIV-1 strain AE.CM244 (A244)); assay: SPR kinetics, DMSO-oxidized dimer injected over captured mAb
# [10] = target: Man3GlcNAc2 V1V2 (2), not deliberately oxidized (HIV-1 strain AE.CM244 (A244)); assay: SPR, BIAcore 3000, PG9 captured on anti-human Ig Fc, glycopeptide as analyte; 1:1 Langmuir global fit
# [11] = target: Man5GlcNAc2 V1V2 (1), not deliberately oxidized (HIV-1 strain AE.CM244 (A244)); assay: as above
# [12] = target: Man5GlcNAc2 V1V2 glycopeptide, DMSO-oxidized disulfide-linked dimer (HIV-1 strain AE.CM244 (A244)); assay: SPR kinetics, DMSO-oxidized dimer; reference PG9
# BnAb PG9 = format: binding, human
# Protocol: V1V2 glycopeptide binding Kd and rate constant measurements were carried out on a BIAcore 3000 instrument using an anti-human Ig Fc capture assay as described earlier (Alam, S. M.; McAdams, M.; Boren, D.; Rak, M.; Scearce, R. M.; Gao, F.; Camacho, Z. T.; Gewirth, D.; Kelsoe, G.; Chen, P.; Haynes, B. F. J. Immunol. 2007, 178, 4424-4435.). Anti-human IgG Fc antibody (Sigma Chemicals) was immobilized on a CM5 sensor chip to about 10000 response units (RU), and each antibody was captured to about 300 RU. Anti-RSV Synagis mAb was captured on the same sensor chip as a control surface. Non-specific binding and drift in signal was double referenced by subtracting binding to the control surface and blank buffer flow for each of the peptide binding interactions. All curve-fitting analyses were performed using global fit of multiple titrations to the 1:1 Langmuir model. All data analysis was performed using the BIAevaluation 4.1 analysis software (GE Healthcare).
# BnAb CH01 = assay: SPR binding of V1V2 peptides/glycopeptides to captured mAb CH01; design: species or system human
# V2 mAb CH58 = assay: SPR binding of V1V2 peptides/glycopeptides to captured V2 mAb CH58; design: species or system human; settings: Example 6; peptide solubilized/oxidized in DMSO, 1-50 μg/mL
# V2 mAb CH59 = assay: SPR binding of V1V2 peptides to captured V2 mAb CH59; design: species or system human; settings: Example 6; peptide oxidized by solubilization in DMSO, 50 ug/mL
# Excerpt: FIGS. 42A-42D. Selective binding of V1V2 BnAbs to mannose derivatized V1V2 glycopeptides but not to aglycone or GlcNAc2 V1V2 peptides. SPR curves showing preferential binding of PG9 and CH01 BnAbs to Man5—(FIG. 42A) and Man3—(FIG. 42B) GlcNAc2 V1V2 glycopeptides but not to GlcNAc2 (FIG. 42C) and aglycone (FIG. 42D) peptides. By contrast, V2 mAbs CH58 and CH59 bound to both aglycone ([…]) and GlcNAc2 (FIG. 42D) V1V2 peptides. Each V1V2 peptide was oxidized by solubilization in DMSO and injected over the indicated MAb at 50 ug/mL. Data shown is after reference subtraction of non-specific signal measured over the control mAb (Synagis). Binding data are representative of at least three experiments for Man5 and Man3 V1V2 peptides and two experiments for GlcNAc2 and aglycone V1V2.
# V1V2 glycopeptide binding Kd and rate constant measurements were carried out on BIAcore 3000 instruments as described earlier (Alam et al, Immunol. 178(7):4424-4435 (2007), Alam et al, J. Virol. 82(1):115-125 (2008)). Anti-human IgG Fc antibody (Sigma Chemicals) was immobilized on either a CM3 or CM5 (CM3 for kinetics and Kd determination) sensor chip (to minimize non-specific binding of peptides to chip matrix) to about 5000 Resonance Unit (RU) and each antibody was captured to about 100-200 RU on individual flow cells, in addition to one flow cell with the control Synagis mAb on the same sensor chip. […]
# PG9 UCA = assay: SPR binding to unmutated ancestor of PG9; design: species or system human
# Protocol: (§1) Only the V1/V2 mAb CH58 bound to the glycan-deficient (aglycone) peptide (FIG. 9A). V1/V2 bNAbs ([…], CH01) bound weakly to V1/V2 GlcNAc2 peptide (FIG. 9B). In contrast, both bNAbs PG9 and CH01 bound avidly to the glycopeptides, V1/V2 Man3GlcNAc2 and V1/V2 Man5GlcNAc2 (FIGS. 9C and 9D). CH58 bound weakly to both glycopeptides. Each of the mAbs was captured on a human Fc specific IgG directly immobilized on a BIAcore CM5 sensor chip. Each of the V1/V2 peptides (3 min at 50 uL/min) was injected over the mAb captured surface and SPR binding was monitored on a BIAcore 3000 instrument. Non-specific binding of peptides was subtracted following measurement of signal on a surface with a control ant-RSV mab Synagis.
# (§2) The binding Kd (disassociation constant) of the UAs ranges from about 0.15 to 0.2 μM.
# (§3) V1V2 glycopeptide binding Kd and rate constant measurements were carried out on BIAcore 3000 instruments as described earlier (Alam et al, Immunol. 178(7):4424-4435 (2007), Alam et al, J. Virol. 82(1):115-125 (2008)). Anti-human IgG Fc antibody (Sigma Chemicals) was immobilized on either a CM3 or CM5 (CM3 for kinetics and Kd determination) sensor chip (to minimize non-specific binding of peptides to chip matrix) to about 5000 Resonance Unit (RU) and each antibody was captured to about 100-200 RU on individual flow cells, in addition to one flow cell with the control Synagis mAb on the same sensor chip. Non-specific binding of V1V2 glycopeptide was double-referenced by substracting the control surface and blank buffer flow for each mAb-V1V2 glycopeptide binding interaction. […] SPR curve fitting analysis was performed using global fit of multiple titrations to the 1:1 Langmuir model. All data analysis was performed using the BIAevaluation 4.1 analysis software (GE Healthcare).
# CH01 UCA = assay: SPR binding to unmutated ancestor of CH01; design: species or system human
# Protocol: as §1, §2, §3
# CH58 UCA = assay: SPR binding to unmutated ancestor of CH58; design: species or system human; settings: Example 1
# Protocol: as §1, §3
# [13] = Circular dichroism analysis of V1V2 peptides; format: physicochemical; settings: dimerized in 20% DMSO-phosphate buffer about 20 h
# Protocol: Circular dichroism (CD) spectra of V1/V2 peptides were measured on an Aviv model 202 spectropolarimeter using a 1 mm path length quartz cuvette. The 20% DMSO-treated peptides were dialyzed against 20 mM phosphate buffer, pH 7.0 to remove DMSO using a dialysis cassette of MW cut-off 3500 Da. The CD spectra of peptides (at 100 200 μg/ml concentration) in phosphate buffer (pH 7.4) were recorded at 25° C. Three scans of the CD spectra of each peptide were averaged and the CD signal from phosphate buffer was subtracted out.
# [14] = Example 6, peptide solubilized/oxidized in DMSO, 50 μg/mL
compound,measurement,setting,value
CC(=O)N[C@@H]1[C@@H](O)[C@H](O[C@@H]2O[C@H](CO)[C@@H](O[C@@H]3O[C@H](CO[C@H]4O[C@H](CO[C@H]5O[C@H](CO)[C@@H](O)[C@H](O)[C@@H]5O)[C@@H](O)[C@H](O[C@H]5O[C@H](CO)[C@@H](O)[C@H](O)[C@@H]5O)[C@@H]4O)[C@@H](O)[C@H](O[C@H]4O[C@H](CO)[C@@H](O)[C@H](O)[C@@H]4O)[C@@H]3O)[C@H](O)[C@H]2NC(C)=O)[C@@H](CO)O[C@H]1NC(=O)C[C@H](N)C(=O)O [Man5GlcNAc2-Asn],Kd,PG9,1000 to 2000 µM and 1600 µM
CH01 UCA (antibody),fold weaker binding than the mature BnAb,[1],3 fold
same,fold higher affinity than the UCA of CH58,[2],5 fold
same,kon,[3],2060 M⁻¹ s⁻¹
same,kon,[4],8490 M⁻¹ s⁻¹
same,Kd,[5],1.78 µM
same,koff,[5],0.00363 s⁻¹
same,Kd,[6],0.118 µM
same,koff,[6],0.000721 s⁻¹
CH58 UCA (antibody),Kd,[7],0.6 µM
same,Kd,[8],0.5 µM
PG9 (antibody),fold higher affinity than CH01 for the same peptide,[9],2 fold
same,Kd,[3],0.0371 µM
same,koff,[3],0.000147 s⁻¹
same,kon,[3],3970 M⁻¹ s⁻¹
same,Kd,[4],0.0294 µM
same,koff,[4],0.000271 s⁻¹
same,kon,[4],9200 M⁻¹ s⁻¹
same,Kd,[10],0.119 µM
same,Kd,[11],0.311 µM
PG9 UCA (antibody),fold weaker binding than the mature BnAb,[12],3 fold
same,fold higher affinity than the UCA of CH58,[2],5 fold
same,kon,[3],5330 M⁻¹ s⁻¹
same,kon,[4],7410 M⁻¹ s⁻¹
same,Kd,[5],1.06 µM
same,koff,[5],0.00566 s⁻¹
same,Kd,[6],0.0976 µM
same,koff,[6],0.000723 s⁻¹
CCC(C)[C@H](NC(=O)[C@@H]1CCCN1C(=O)[C@@H](NC(=O)[C@@H](NC(=O)[C@H](CC(=O)O)NC(=O)[C@H](CC(C)C)NC(=O)[C@H](CCCCN)NC(=O)[C@H](Cc1ccc(O)cc1)NC(=O)[C@H](Cc1ccccc1)NC(=O)[C@H](CC(C)C)NC(=O)[C@H](C)NC(=O)[C@H](Cc1cnc[nH]1)NC(=O)[C@@H](NC(=O)[C@H](CCCCN)NC(=O)[C@H](CCC(N)=O)NC(=O)[C@H](CCCCN)NC(=O)[C@H](CCCCN)NC(=O)[C@H](CC(=O)O)NC(=O)[C@H](CCCNC(=N)N)NC(=O)[C@H](CC(C)C)NC(=O)[C@H](CCC(=O)O)NC(=O)[C@@H](NC(=O)[C@@H](NC(=O)[C@H](CCSC)NC(=O)[C@H](CC(=O)N[C@@H]1OC(CO)[C@@H](O[C@@H]2OC(CO)[C@@H](O)C(O)C2NC(C)=O)C(O)C1NC(C)=O)NC(=O)[C@H](Cc1ccccc1)NC(=O)[C@H](CO)NC(=O)[C@H](CS)NC(=O)[C@H](CC(=O)N[C@@H]1OC(CO)[C@@H](O[C@@H]2OC(CO)[C@@H](O)C(O)C2NC(C)=O)C(O)C1NC(C)=O)NC(=O)[C@H](CCCNC(N)N)NC(=O)[C@@H](NC(=O)[C@H](CCC(=O)O)NC(=O)[C@H](CC(=O)O)NC(=O)[C@@H](NC(=O)[C@@H](NC(C)=O)C(C)CC)C(C)O)C(C)C)C(C)O)C(C)O)C(C)C)C(C)CC)C(C)C)C(N)=O (stereo partly drawn) [GlcNAc2 V1V2] (Ac-[Ile(3ξ)][Thr(3ξ)]DEV[Orn(CH(NH2)2)]D(X1)CSFD(X1)M[Thr(3ξ)][Thr(3ξ)]ELRDKKQKVHALFYKLD[Ile(3ξ)]VP[Ile(3ξ)]-NH2),SPR binding to PG9,"BnAb PG9; Example 1, peptide injected over mAb captured on anti-human Fc, BIAcore 3000",bound weakly
same,SPR binding to PG9,"BnAb PG9; Example 5, peptides 200 μg/mL, glycans 25 μg/mL over captured PG9, listed as 3",did not bind
same,SPR binding to PG9,"BnAb PG9; Example 5, peptides 200 μg/mL, glycans 25 μg/mL over captured PG9, listed as V1V2 GlcNAc2",minimal to no binding
same,SPR binding to PG9,BnAb PG9; [14],no binding
same,SPR binding to CH01,"BnAb CH01; Example 1, peptide injected over captured mAb",bound weakly
same,SPR binding to CH01,BnAb CH01; [14],no binding
same,SPR binding to CH58,V2 mAb CH58,retained
same,SPR binding to CH59,V2 mAb CH59,bound
same,SPR binding to PG9 UA,PG9 UCA; Example 1,no binding
same,SPR binding to PG9 UCA,PG9 UCA; Example 6,neither UCAs bound
same,SPR binding to CH01 UA,CH01 UCA; Example 1,slow association indicating weak affinity interaction
same,SPR binding to CH01 UCA,CH01 UCA; Example 6,neither UCAs bound
same,SPR binding to CH58 UA,CH58 UCA,no binding
same,"β-strand (CD spectra deconvolution, K2D3)",[13],17%
